Data from publication doi:10.1101/2021.11.29.470334 (bioRxiv, 2021).

Biological target: the molecule itself
Assay: cryo-EM structure

B1: Kir6.2 from Mus musculus (mmKir6.2) H175K mutant, as the Kir6.2 subunit of H175K_(cryoEM) (natural protein)
chain: LSRKGIIPEEYVLTRLAEDPAEPRYRTRERRARFVSKKGNCNVAHKNIREQGRFLQDVFTTLVDLKWPHTLLIFTMSFLCSWLLFAMVWWLIAFAHGDLAPGEGTNVPCVTSIHSFSSAFLFSIEVQVTIGFGGRMVTEECPLAILILIVQNIVGLMINAIMLGCIFMKTAQAKRRAETLIFSKHAVITLRHGRLCFMLRVGDLRKSMIISATIHMQVVRKTTSPEGEVVPLHQVDIPMENGVGGNGIFLVAPLIIYHVIDSNSPLYDLAPSDLHHHQDLEIIVILEGVVETTGITTQARTSYLADEILWGQRFVPIVAEEDGRYSVDYSKFGNTIKVPTPLCTARQLDEDRSLLDALTLASSRGPLRKRSVAVAKAKPKFSISPDSLS
  binding result: binds
